Read-outs that look alike come from different tables or passages of the source. Values belong to the molecule of their own block, whether it stands above or below them.
B1: Ec Pch2^EQ (E159Q), purified hexamer (enzyme, E. coli MS115-1, UniProt D7Y2H4 1-311, looked up)
chain: MNVKPSLDELFERRINFPDFEPQERLARLVGLDEHKDRLSKILGLLVNPYGIQEWAKKYHPDARAAVDTVLRRPPLVVLAGDVGSGKTELAETIGDAVARQEDIDITLYPLSLATRGQGRVGEMTQLVSAAFDYTIEAADKLKNTNGKARGAVLLLIDQADALAQSRENAQMHHEDRAGVNAFIRGIDRIANQKLPAAVLMCTNRLKALDPAVQRRAAEILTFSRPNDEQRHYLLHSKLTGLGLNSTAVEELVRLTGPRDPNSPGFTFSDITQRLIPSIILAAYPYNAVSVHSALQVVNKMTPTPAFIDRQ

What was measured:
[1] = target: Pa HORMA2, untagged, coexpressed (P. aeruginosa ATCC27853); test: SEC-MALS
Chain of Pa HORMA2, untagged, coexpressed (P. aeruginosa ATCC27853) (P0DTF6 whole entry): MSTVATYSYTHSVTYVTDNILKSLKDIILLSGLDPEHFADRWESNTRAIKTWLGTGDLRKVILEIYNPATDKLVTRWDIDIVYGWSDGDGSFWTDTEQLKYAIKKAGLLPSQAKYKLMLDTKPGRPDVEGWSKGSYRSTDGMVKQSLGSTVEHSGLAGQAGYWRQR

[2] = target: Pa CdnD (purified, in complexes with HORMA proteins) (P. aeruginosa ATCC27853) (UniProt P0DTF7); test: SEC-MALS
Chain of Pa CdnD (purified, in complexes with HORMA proteins) (P. aeruginosa ATCC27853) (P0DTF7 whole entry, one chain of several): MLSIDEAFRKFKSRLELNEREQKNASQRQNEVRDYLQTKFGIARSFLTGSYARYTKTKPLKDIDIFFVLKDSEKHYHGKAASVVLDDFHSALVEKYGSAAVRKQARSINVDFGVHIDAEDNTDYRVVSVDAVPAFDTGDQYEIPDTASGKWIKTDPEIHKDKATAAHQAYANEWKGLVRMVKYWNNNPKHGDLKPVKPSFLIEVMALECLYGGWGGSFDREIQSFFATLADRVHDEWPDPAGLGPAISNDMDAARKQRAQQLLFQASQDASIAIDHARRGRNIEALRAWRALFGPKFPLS

[3] = target: Rhizobiales sp. Pch2 (Rhizobiales sp.); test: crystal structure
SEC-MALS = target: the molecule itself; test: SEC-MALS
[4] = target: T1, Ec CdnC:HORMA complex (purified) (E. coli MS115-1, UniProt D7Y2H2 1-321; D7Y2H3 1-172); test: SEC-MALS
T1 sequence (looked up) 1: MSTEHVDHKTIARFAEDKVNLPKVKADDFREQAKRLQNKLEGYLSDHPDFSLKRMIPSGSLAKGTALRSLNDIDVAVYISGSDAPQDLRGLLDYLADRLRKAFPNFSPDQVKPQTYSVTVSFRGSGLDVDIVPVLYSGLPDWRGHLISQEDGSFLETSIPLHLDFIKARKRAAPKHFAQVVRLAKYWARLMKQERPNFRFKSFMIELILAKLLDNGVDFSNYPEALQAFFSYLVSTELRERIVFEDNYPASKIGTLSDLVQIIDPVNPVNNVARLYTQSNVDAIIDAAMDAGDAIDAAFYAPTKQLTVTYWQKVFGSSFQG
T1 sequence (looked up) 2: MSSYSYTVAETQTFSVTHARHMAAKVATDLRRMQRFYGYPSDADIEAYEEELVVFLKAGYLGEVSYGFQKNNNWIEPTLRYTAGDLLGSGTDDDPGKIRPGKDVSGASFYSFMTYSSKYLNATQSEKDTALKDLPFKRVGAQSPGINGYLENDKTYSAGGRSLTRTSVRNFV

[5] = target: T2, Ec CdnC (purified, coexpressed with His6-HORMA) (E. coli MS115-1, UniProt D7Y2H2 1-321); test: SEC-MALS
T2 sequence (looked up): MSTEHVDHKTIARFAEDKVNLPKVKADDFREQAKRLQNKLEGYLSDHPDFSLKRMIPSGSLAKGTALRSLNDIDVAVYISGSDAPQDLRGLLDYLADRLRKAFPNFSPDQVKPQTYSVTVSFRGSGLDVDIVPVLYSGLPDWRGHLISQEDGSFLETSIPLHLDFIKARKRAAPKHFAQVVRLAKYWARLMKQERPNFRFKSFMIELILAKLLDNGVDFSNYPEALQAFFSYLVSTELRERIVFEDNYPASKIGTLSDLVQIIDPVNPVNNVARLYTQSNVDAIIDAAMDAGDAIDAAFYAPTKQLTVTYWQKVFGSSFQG

[6] = target: B1; test: crystal structure

Molecule: Pa HORMA1 (purified, SEC-MALS samples) (natural protein)
stoichiometry N (HORMA1:HORMA2) [1]: 1 | stoichiometry N ([1]; scale: HORMA1 per HORMA2 in the 2:1:1 CdnD:HORMA1:HORMA2 complex): 1 | stoichiometry N ([2]; scale: CdnD per HORMA1 in the 2:1:1 CdnD:HORMA1:HORMA2 complex): 2

Molecule: Pa HORMA2, untagged, coexpressed (natural protein)
stoichiometry N [2]: 1 CdnD:HORMA2 | stoichiometry N ([2]; scale: CdnD per HORMA2 in the 2:1:1 CdnD:HORMA1:HORMA2 complex): 2

stoichiometry N [3]: 6
Molecule: Rhizobiales sp. Pch2 (enzyme)

Molecule: B1
stoichiometry N (SEC-MALS): 6 | stoichiometry N [4]: 6 Pch2^EQ chains per CdnC:HORMA

stoichiometry N [5]: 1 CdnC:HORMA | binding result [6]: binds
B2: Ec HORMA (purified, coexpressed with CdnC) (natural protein, E. coli MS115-1, UniProt D7Y2H3 1-172, looked up)
chain: MSSYSYTVAETQTFSVTHARHMAAKVATDLRRMQRFYGYPSDADIEAYEEELVVFLKAGYLGEVSYGFQKNNNWIEPTLRYTAGDLLGSGTDDDPGKIRPGKDVSGASFYSFMTYSSKYLNATQSEKDTALKDLPFKRVGAQSPGINGYLENDKTYSAGGRSLTRTSVRNFV

Source: article doi:10.1101/694695 (bioRxiv, 2019)
